The values that follow come from patent US8192946B2, “Assays for detecting pregnancy-associated glycoproteins” (The Curators of The University of Missouri, priority 2008, dated 2012).

What all share (format): biochemical
In test [1] the test system is native bovine PAG (preparation 7-10). In words: inhibition of native PAG peptidase activity by pepstatin A. The settings on record: parallel samples in pH 3.5, 4 and 4.5 buffers; FIG. 1. From the text: FIG. 1. pH profile of the activity of native bovine PAG (preparation 7-10) against a fluorescent peptidase substrate. The PAG was isolated by pepstatin affinity chromatography and further purified by anion exchange chromatography. Identical amounts of the 7-10 preparation were mixed with a fluorescent peptidase substrate in the presence of buffers adjusted to different pH levels. The extent of fluorescent product release is indicated on the y-axis and the pH conditions of each reaction are indicated on the x-axis. Parallel samples in the pH 3.5, 4 and 4.5 buffers were treated with pepstatin A, an inhibitor of aspartic peptidases, to determine if any observed activity was from aspartic peptidases.
In each of the examples shown in FIGS. 1-3, native bovine PAGs were bound to pepstatin-agarose matrix at pH 7 or 7.5, washed and eluted by increasing osmolarity (up to 1 M NaCl), including detergent (1% Triton X-100) and increasing the pH of the elution buffer. Different PAGs bind with differing affinities to the aspartic peptidase inhibitor, pepstatin A, and it is possible to isolate different members of the family by systematically altering binding and elution conditions (e.g. Green et al., 2005; Wooding et al., 2005). The differences in activity and pH optima for each of these preparations are illustrated in FIGS. 1-3. […]

For test [2], the system named is fluorescent cathepsin D/E substrate. As to the kind of experiment: proteolytic activity of purified recombinant PAGs as a function of pH. The note with it: 20 μM substrate; for pH of maximal activity: buffers of varying pH with 100 mM NaCl, FIGS. 5A, 5B. The text has this: FIGS. 5A and 5B. The activity of purified recombinant bovine PAG-2 and -12 (FIG. 5A), and porcine PAG-2 (FIG. 5B), against a fluorescent cathepsin D substrate as a function of pH. In FIG. 5A, triangles represent boPAG-2 activity, which is at a maximum at pH 4, while squares represent boPAG-12 activity. In both panels (A and B), each activity point is normalized by the maximum activity (relative fluorescence units) of each peptidase at its optimal pH. The percent activity is shown on the Y-axis and the pH of respective buffers on the X-axis. The error bars represent standard deviation in results obtained from duplicate reads from two separate experiments.
Recombinant boPAG-2 and -12 and recombinant porcine PAG-2 (poPAG-2) were tested for proteolytic activity by incubation with 20 μM fluorescent cathepsin D/E substrate (Peptides International, as above) in buffers of varying pH containing 100 mM NaCl. Raw fluorescence data was transformed to % relative activity, with the highest value set at 100%. Maximal activity for boPAG-2 was at pH 4, while maximal activity for boPAG-12 and poPAG-2 was at pH 3.5 (FIGS. 5A and 5B).

Test [3] relates to cathepsin D/E FRET substrate. In words: anti-FLAG immuno-trap protease assay of recombinant candidate bovine PAGs at pH 3-7. As to the method:
FIGS. 6A and 6B. Relative protease activity, as measured by fluorescence, from an immuno-trap protease assay of several recombinant PAGs isolated with an anti-FLAG monoclonal antibody. The reactions were performed under several pH conditions simultaneously (pH 2.5 to 7.0). Identical concentrations of each recombinant PAG lysate were added to the wells.
Table 5 and FIGS. 6A and 6B show results of protease activity (fluorescence) from immuno-trap assays of several additional recombinant bovine PAGs that were expressed as fusion proteins with a FLAG epitope tag. The PAGs were immobilized in the wells of an ELISA plate by using anti-FLAG in an immuno-protease assay format (as described above) and were analyzed for their proteolytic activity against the cathepsin D/E FRET substrate at pH increments ranging from 3-7. […] This protein was used as a negative control in the assay to establish the baseline for background fluorescence.

Square brackets hold non-standard residues; d marks the D form. Peptide text beside a SMILES is read from it. * marks the point of attachment. Sta = CC(C)C[C@H](N)[C@@H](O)CC(=O)O; Isovaleryl = CC(C)CC(=O)*

For the molecule `CC(C)CC(=O)N[C@H](C(=O)N[C@H](C(=O)N[C@@H](CC(C)C)[C@@H](O)CC(=O)N[C@@H](C)C(=O)N[C@@H](CC(C)C)[C@@H](O)CC(=O)O)C(C)C)C(C)C` [pepstatin A] (Isovaleryl-VV[Sta]A[Sta]-OH), the “inhibition of peptidase activity” value in test [1] is “inhibited”.

B1: poPAG-2: recombinant porcine PAG-2, FLAG-tagged (protein)
chain: DYKDDDDKLVMIPLTKVKSVRESLREKGLLKNFLKEHPYNMIQNLLSKNSSHVQKFSYQPLRNYLDMVYVGNISIGTPPQQFSVVFDTGSSDLWVPSIYCKSKACVTHRSFNPSHSSTFHDRGKSIKLEYGSGKMSGFLGQDTVRIGQLTSTGQAFGLSKEETGKAFEHAIFDGILGLAYPSIAIKGTTTVIDNLKKQDQISEPVFAFYLSSDKEEGSVVMFGGVDKKYYKGDLKWVPLTQTSYWQIALDRITCRGRVIGCPRGCQAIVDTGTSMLHGPSKAVAKIHSLIKHFEKEYVVPCNARKALPDIVFTINNVDYPVPAQAYIRKYVVPCNARKALPDIVFTINNVDYPVPAQAYIRKNANNNRCYSTFEDIMDTLNQREIWILGDVFLRLYFTVYDEGQNRIGLAQAT
In the case of B1, the “pH of maximal activity” value in test [2] worked out at 3.5. Moreover, in test [2] (pH 2.5, 100 mM NaCl), the “activity at pH 2.5” value is recorded as “showed activity”.

B2: tsh (control): recombinant equine-TSH-beta expressed and purified in the same manner as the PAGs, negative control (protein)
chain: FCIPTEYMMHVERKECAYCLTINTTICAGYCMTRDINGKLFLPKYALSQDVCTYRDFMYKTVEIPGCPDHVTPYFSYPVAVSCKCGKCNTDYSDCIHEAIKANYCTKPQKSYVVEFSI
Consider B2, for which the proteolytic activity result in test [3] (anti-FLAG immuno-trap, pH 3-7, compared with TSH-beta control) was “does not have proteolytic activity”. For the same molecule, the “Relative fluorescent product release, pH 3.0” value in test [3] (pH 3.0, immobilized with anti-FLAG) is reported as 38349. For the same molecule, the “Relative fluorescent product release, pH 4.0” value in test [3] (pH 4.0, immobilized with anti-FLAG) was 33908. The “Relative fluorescent product release, pH 5.0” value in test [3] (pH 5.0, immobilized with anti-FLAG) amounted to 34996.5. Besides, the “Relative fluorescent product release, pH 6.0” value in test [3] (pH 6.0, immobilized with anti-FLAG) was 28222.5. In test [3] (pH 7.0, immobilized with anti-FLAG), the “Relative fluorescent product release, pH 7.0” value is on record as 26590.5.

B3: boPAG-2: recombinant bovine PAG 2 expressed in a baculovirus expression system as FLAG-tagged fusion protein (protein)
chain: DYKDDDDKIVILPLKKMKTLRETLREKNLLNNFLEEQAYRLSKNDSKITIHPLRNYLDTAYVGNITIGTPPQEFRVVFDTGSANLWVPCITCTSPACYTHKTFNPQNSSSFREVGSPITIFYGSGIIQGFLGSDTVRIGNLVSPEQSFGLSLEEYGFDSLPFDGILGLAFPAMGIEDTIPIFDNLWSHGAFSEPVFAFYLNTNKPEGSVVMFGGVDHRYYKGELNWIPVSQTSHWQISMNNISMNGTVTACSCGCEALLDTGTSMIYGPTKLVTNIHKLMNARLENSEYVVSCDAVKTLPPVIFNINGIDYPLRPQAYIIKIQNSCRSVFQGGTENSSLNTWILGDIFLRQYFSVFDRKNRRIGLAPAV
Regarding B3, in test [2], the “pH of maximal activity” value was 4.
